From patent publication US20160324958A1 (ALPHA O PEPTIDES, published 2016)

B1: LONG-D2-D1-ori self-assembling protein nanoparticle (other)
chain: MGHHHHHHASWRWDGGLVPRGSWQTWNARWDQWSNDWNAWRSDWQAWRDDWARWRALWMGGRLLLRLEELERRLEELERRLEELERFVAAWTLRVRALERRLEELERRIEEIARGSGSSARLSDLEANNAVKGESKITVNGAEYTANATGDKITLAGKTMFIDKTASGVSTLINEDAAAAKKSTANPLASIDSALSKVDAVRSSLGAIQNRFDSAIGSRNANDGISIAQTTEGALNEINNNLQRVRELSVQATNGTNSDSDLKSIQDEIQQRLEEIDRVSNQTQFNGVKVLSQDNQMKIQVGANDGETITIDLQKIDVKSLGLDGFNVNGPKEATVGDLKSSFKNVTGYDTYAAGADKYRVDINSGAV
B2: T81c-WRW-8RRVRA-D0-D1 : T81c-WRW-8RRVRA-T1BT* co-assembled nanoparticle (12:48) (other)
chain 1: MGHHHHHHASWRWDGGLVPRGSWQTWNARWDQWSNDWNAWRSDWQAWRDDWARWRALWMGGRLLLRLEELERRLEELERRLEELERFVAAWTLRVRALERRLEELERRIEEIARGMAQVINTNSLSLLTQNNLNKSQSALGTAIERLSSGLRINSAKDDAAGQAIANRFTANIKGLTQASRNANDGISIAQTTEGALNEINNNLQRVRELAVQSANSTNSQSDLDSIQAEITQRLNEIDRVSGQTQFNGVKVLAQDNTLTIQVGANDGETIDIDLKQINSQTLGLDSLNVHGAPVDPASPWTENPLQKIDAALAQVDALRSDLGAVQNRFNSAITNLGNTVNNLSEARSRIEDSDYATEVSNMSRAQILQQAGTSVLAQANQVPQNVLSLLR
chain 2: MGHHHHHHASEYLNKIQNSLSTEWSPSSVTGSWQTWNARWDQWSNDWNAWRSDWQAWRDDWARWRALWMGGRLLLRLEELERRLEELERRLEELERFVAAWTLRVRALERRLEELERRIEEIARGSGDPNANPNVDPNANPNVNANPNANPNANP
B3: PD52-2i88-PANDORA-D2-D1-ori : PD52-2i88-PANDORA-Noro co-assembled nanoparticle (5:55) (other)
chain 1: MGHHHHHHASGSWEKWNAKWDEWKNDWNDWRRDWQAWVDDWAYWTLTWKYGELYSKLAELERRNEELERRLEELARFVAALSMRLAELERRNEELARGSGSSARLSDLEANNAVRGESKITVNGAEYTANATGDRITLAGRTMFIDRTASGVSTLINEDAAAARRSTANPLASIDSALSRVDAVRSSLGAIQNRFDSAIGSKNANDGISIAQTTEGALNEINNNLQRVRELSVQATNGTNSDSDLRSIQDEIQQRLEEIDRVSNQTQFNGVKVLSQDNQMKIQVGAKDGETITIDLQKIDVKSLGLDGFNVNGPREATVGDLRSSFRNVTGYDTYAAGADRYRVDINSGAV
chain 2: MGHHHHHHASGSWEKWNAKWDEWKNDWNDWRRDWQAWVDDWAYWTLTWKYGELYSKLAELERRNEELERRLEELARFVAALSMRLAELERRNEELARGSGSTVEQKTRPFTLPNLPLSSLSNSRAPLPISSMGISPDNVQSVQFQNGRCTLDGRLVGTTPVSLSHVAKIRGTSNGTVINLTELDGTPFHPFEGPAPIGFPDLGGCDWHINMTQFGHSSQTQYDVDTTPDTFVPHLGSIQANGIGSGNYVGVLSWISPPSHPSGSQVDLWKIPNYGSSITEATHLAPSVYPPGFGEVLVFFMSKMPGPGAYNLPCLLPQEYISHLASEQAPTVGEAALLHYVDPDTGRNLGEFKAYPDGFLTCVPNGASSGPQQLPINGVFVFVSWVSRFYQLKPVGTAS

What was measured:
[1] = molecular target: Toll-like receptor 5 (TLR5) on TLR5/SEAPorter HEK 293 cells (IMGENEX, Cat. No. IML-105) (UniProt O60602); assay: cell-based or functional assay
Chain of Toll-like receptor 5 (TLR5) on TLR5/SEAPorter HEK 293 cells (IMGENEX, Cat. No. IML-105) (UniProt O60602) (O60602 21-858 limits assumed): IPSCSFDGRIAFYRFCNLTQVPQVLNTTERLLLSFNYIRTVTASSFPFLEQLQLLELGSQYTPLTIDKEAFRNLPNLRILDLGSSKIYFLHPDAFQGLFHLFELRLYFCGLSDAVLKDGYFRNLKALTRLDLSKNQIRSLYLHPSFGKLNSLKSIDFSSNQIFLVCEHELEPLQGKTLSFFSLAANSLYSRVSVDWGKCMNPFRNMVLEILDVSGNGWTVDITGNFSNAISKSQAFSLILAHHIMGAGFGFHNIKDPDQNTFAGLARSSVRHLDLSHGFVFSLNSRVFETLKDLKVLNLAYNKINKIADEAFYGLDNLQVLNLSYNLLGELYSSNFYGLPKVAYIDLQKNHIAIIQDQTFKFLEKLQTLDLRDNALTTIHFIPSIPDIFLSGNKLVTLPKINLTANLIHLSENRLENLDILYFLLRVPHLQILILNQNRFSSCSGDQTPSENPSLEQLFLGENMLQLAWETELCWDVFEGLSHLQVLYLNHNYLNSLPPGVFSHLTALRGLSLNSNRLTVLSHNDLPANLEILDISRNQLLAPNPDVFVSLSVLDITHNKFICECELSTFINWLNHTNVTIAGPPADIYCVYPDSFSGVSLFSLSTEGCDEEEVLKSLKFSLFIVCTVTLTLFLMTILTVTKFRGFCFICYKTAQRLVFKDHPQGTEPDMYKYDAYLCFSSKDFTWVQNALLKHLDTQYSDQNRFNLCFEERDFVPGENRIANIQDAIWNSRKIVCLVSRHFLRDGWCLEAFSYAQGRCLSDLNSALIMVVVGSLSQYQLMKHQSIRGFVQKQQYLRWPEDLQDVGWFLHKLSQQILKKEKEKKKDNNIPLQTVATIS

[2] = molecular target: Toll-like receptor 5 (TLR5) on TLR5/SEAPorter HEK 293 cells (IMGENEX, Cat. No. IML-105) (UniProt O60602 21-858); assay: cell-based or functional assay
Chain of Toll-like receptor 5 (TLR5) on TLR5/SEAPorter HEK 293 cells (IMGENEX, Cat. No. IML-105) (UniProt O60602 21-858) (O60602 21-858 limits assumed): as above

Row | Molecule | EC50 of TLR5 agonist activity (SEAP reporter, TLR5/SEAPorter HEK 293 cells) [1] [ng/mL] | EC50 of TLR5 agonist activity (SEAP reporter, TLR5/SEAPorter HEK 293 cells) [2] [ng/mL] | TLR5 activation relative to native flagellin [2] [fold]
1 | flagellin from Salmonella typhimurium (IMGENEX flagellin, Cat. No. IMG-2205) (from UniProt P06179 2-495) (ligand) | 0.29 | – | –
2 | B1 | – | 12.6 | –
3 | B2 | – | 0.0901 | ~3
4 | B3 | – | 17.7 | –
